Experimental data taken from PMC4574351, “Tubulin cofactors and Arl2 are cage-like chaperones that regulate the soluble αβ-tubulin pool for microtubule dynamics” (eLife, 2015).
Each block holds one binder with its values, some of them ahead of it.

Columns and labels:
[1] = target: T1, Tubulin cofactor D (TBCD), S. cerevisiae Cin1p (S. cerevisiae), P40987; experiment: SEC-MALS; WTC-03S5 column; purified TBC-DEG (subunits co-expressed and co-purified), αβ-tubulin, TBCC and their complexes; ternary complex with GDP·ALFx (wild type) or GTP (Q73L); settings: remark: other sources report otherwise
T1 chain: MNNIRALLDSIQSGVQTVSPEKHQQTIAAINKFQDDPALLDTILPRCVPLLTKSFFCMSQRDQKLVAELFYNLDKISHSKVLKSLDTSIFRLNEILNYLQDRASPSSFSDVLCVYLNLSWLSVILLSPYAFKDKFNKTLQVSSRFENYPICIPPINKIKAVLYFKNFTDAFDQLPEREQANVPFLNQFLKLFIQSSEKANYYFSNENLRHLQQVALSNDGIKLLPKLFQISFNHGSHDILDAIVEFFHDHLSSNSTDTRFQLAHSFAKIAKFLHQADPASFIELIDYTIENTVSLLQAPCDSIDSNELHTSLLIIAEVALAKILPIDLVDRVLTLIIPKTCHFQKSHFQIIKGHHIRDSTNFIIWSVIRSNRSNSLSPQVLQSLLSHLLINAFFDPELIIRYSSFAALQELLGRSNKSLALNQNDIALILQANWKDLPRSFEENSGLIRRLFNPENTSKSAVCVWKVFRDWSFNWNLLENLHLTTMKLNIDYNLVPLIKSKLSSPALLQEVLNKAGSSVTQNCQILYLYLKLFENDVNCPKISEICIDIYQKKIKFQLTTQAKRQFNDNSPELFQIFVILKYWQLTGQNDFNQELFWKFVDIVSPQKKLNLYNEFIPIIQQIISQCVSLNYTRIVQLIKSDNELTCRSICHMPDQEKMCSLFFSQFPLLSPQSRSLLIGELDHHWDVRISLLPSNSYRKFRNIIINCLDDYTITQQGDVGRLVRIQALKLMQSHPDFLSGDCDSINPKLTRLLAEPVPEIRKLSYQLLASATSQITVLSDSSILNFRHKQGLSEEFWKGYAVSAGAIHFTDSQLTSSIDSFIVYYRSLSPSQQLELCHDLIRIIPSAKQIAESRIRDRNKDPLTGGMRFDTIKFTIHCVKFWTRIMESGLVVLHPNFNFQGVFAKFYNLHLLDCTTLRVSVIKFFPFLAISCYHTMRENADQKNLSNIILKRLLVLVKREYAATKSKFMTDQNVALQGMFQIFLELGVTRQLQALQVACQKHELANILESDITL

[2] = target: TBC-DEG:αβ-tubulin complex (S. cerevisiae | porcine) (UniProt P40987)
[3] = target: TBC-DEG:αβ-tubulin complex (S. cerevisiae | porcine) (UniProt P40987); remark: listed apart in the source
[4] = target: TBC-DEG:αβ-tubulin complex (S. cerevisiae | porcine) (UniProt P40987); experiment: SEC-MALS; WTC-03S5 column; purified TBC-DEG (subunits co-expressed and co-purified), αβ-tubulin, TBCC and their complexes; ternary complex with GDP·ALFx (wild type) or GTP (Q73L)

stoichiometry N [1]: 1
B1: Tubulin cofactor E (TBCE), S. cerevisiae Pac2p, P39937 1-518 (natural protein)
chain: MTYEIGDRLKIGGYFCTIKFIGVIKPWPSVKAYGVEWDDHSRGKHSGTIDDIHYFDVQIPNSGSFLKESKIKSPGVRRITFYEALSEKYGGSSNNINDLSIGNKRVEGLGFDELNARNKNYKKLRKIALRDSDVAILFQNQDELNRVIQNCVNVKDLDLSLNLFTNINSLCEFIEPLKNLESLNISQNKLLSGWDNLKEYDLSHIKTLRLSSCGLSYKHIGKLLKSFRTLKMLDLSYNNLTSAGIQNFENEIPCTLEELNISGNNLISFPLFPKNLTLKGLNVSNNQISRAPSIAIYSVESLDITDNKFKERSLIDDLNKTFPSLKNIHLSGNEFNYNGNYINVEEQATFYEVLARFDRVMVLNGSICDVKTRREAEMFFVSKVMNNELSYDTNLPRWSSLIKSYEIDMSKLSFNNERETRQSLVLKIKIRAGKKPSSDLDYWVLPSFTVRYVKSVICRKLNFDILNVKLFHENSEGMINEIKYNFRPISDFNVVNGDIIHVSSPVNNKSIQKVNSPS

steady-state GTP hydrolysis kcat (malachite green), 1 μM TBC-DEG:1 μM TBCC:1 μM αβ-tub [2]: 31300 M⁻¹ s⁻¹ | steady-state GTP hydrolysis kcat, equimolar αβ-tubulin and TBCC added to TBC-DEG (number as in the text) [3]: 0.0308 s⁻¹ | stoichiometry N [4]: 1
B2: Tubulin cofactor C (TBCC), S. cerevisiae Cin2p (natural protein)
chain: MDFTAKIKELERELSETSDYKTLQKKTISLRSELNTLSHSLTSYEKEHFSNDIENVLKSINAKLSESKGKKRLFSFKQKNSSSAVHKNVERTELANAPAYTTTLKKHYVLEKGDSAFENLEFCTVTSTTDYSGNSALSGSLCFRNITKCVINLQRIFFQTGSIFITDCTDSIIFLRSPSDKDFQIRLRDLKNCKILIEKLSPSIDCKQVVIIENCHKCIFNASTRDHLIIQDFSNPFQSEETEDNSAFAFEDFDICNKDTMQLFRAYL

steady-state GTP hydrolysis kcat, 1 μM TBC-DEG:1 μM TBCC-Cterm:1 μM αβ-tub [2]: 18800 M⁻¹ s⁻¹
B3: TBCC C-terminal β-helix domain (residues 100-267) (domain or fragment)
chain: YTTTLKKHYVLEKGDSAFENLEFCTVTSTTDYSGNSALSGSLCFRNITKCVINLQRIFFQTGSIFITDCTDSIIFLRSPSDKDFQIRLRDLKNCKILIEKLSPSIDCKQVVIIENCHKCIFNASTRDHLIIQDFSNPFQSEETEDNSAFAFEDFDICNKDTMQLFRAY
